Experimental data reported in patent US20060078562A1, “RAGE fusion proteins and methods of use” (priority 2004, published 2006).

Tests used:
[1] = biological target: Fc receptor on THP-1 cells; test: cell-based or functional assay
[2] = tested on: male C57BL/6 mice, cerebral ischemia; test: Mouse model of stroke (cerebral ischemia and reperfusion, infarct); assay type: in vivo; conditions: treated just prior to reperfusion
Experimental: For example, the RAGE fusion proteins of the present invention may also be used to treat stroke. […] In this model, the […] of a mouse is ligated and then reperfused to form an infart. To assess the efficacy of RAGE fusion proteins to treat or prevent stroke, mice were treated with sRAGE or TTP-4000 or control immunoglobulin just prior to reperfusion.
TTP-4000 was also compared to sRAGE in a disease relevant animal model of stroke. In this model, the […] of a mouse was ligated for 1 hour followed by 23 hours of reperfusion at which point the mice were sacrificed and the area of the infarct in the brain was assessed. […] After the nylon suture had been in place for 1 hour, the animal was re-anesthetized, rectal temperature was recorded and the suture was removed and the incision closed.
Infarct volume was determined by anesthetizing the animals with an intraperitoneal injection of sodium pentobarbital (50 mg/kg) and then removing the brains. […] The infarct area in each section was determined with a computer-assisted image analysis system, consisting of a Power Macintosh computer equipped with a Quick Capture frame grabber card, Hitachi CCD camera mounted on a camera stand. […] The images were captured and the total area of infarct was determined over the sections. […] Summing the infarct volumes of the sections calculated the total infarct volume. […]

amyloid-beta (A-beta) = test: Competition of a RAGE ligand with immobilized amyloid-beta for binding to the fusion protein; conditions: TTP-4000 initial solution diluted 1:10 or 1:30; RAGE ligand FAC 10 μM
Experimental: The fusion protein of the present invention may also be used to identify compounds having the ability to bind to RAGE.
Known RAGE ligands were coated onto the surface of Maxisorb plates at a concentration of 5 micrograms per well. Plates were incubated at 4° C. overnight. Following ligand incubation, plates were aspirated and a blocking buffer of 1% BSA in 50 mM imidizole buffer (pH 7.2) was added to the plates for 1 hour at room temperature. The plates were then aspirated and/or washed with wash buffer (20 mM Imidizole, 150 mM NaCl, 0.05% Tween-20, 5 mM CaCl2 and 5 mM MgCl2, pH 7.2). […] The fusion protein was added at increasing dilutions of the initial sample. The RAGE fusion protein was allowed to incubate with the immobilized ligand at 37° C. for one hour after which the plate was washed and assayed for binding of the fusion protein. Binding was detected by the addition of an immunodetection complex containing a monoclonal mouse anti-human IgG1 diluted 1:11,000 to a final assay concentration (FAC) of 21 ng/100 μL, a biotinylated goat anti-mouse IgG diluted 1:500, to a FAC of […], and an avidin-linked alkaline phosphatase. […] Binding of the complex to the immobilized fusion protein was quantified by measuring conversion of PNPP to para-nitrophenol (PNP) which was measured spectrophotometrically at 405 nm. […]

[3] = tested on: Zucker diabetic rats, restenosis following vascular injury; test: Diabetic rat model of restenosis (balloon injury of left common carotid artery); assay type: in vivo; conditions: 4 days after injury; dose-responsive; FIG. 13B
Experimental: In these experiments, balloon injury of left common carotid artery was performed in Zucker diabetic and nondiabetic rats using standard procedure. […] A maintenance dose was delivered every other day until day 7 after injury (i.e., at day 1, 3, 5 and 7 after injury). The maintenance dose was high=1 mg/animal for one group, or low=0.3 mg/animal for the second group. To measure vascular smooth muscle cell (VSMC) proliferation, animals were sacrificed at 4 days and 21 days after injury. For the measurement of cell proliferation, 4 day animals received intraperitoneal injection of bromodeoxyuridine (BrDdU) 50 mg/kg at 18, 12, and 2 hours before euthanasia. After sacrifice, the entire left and right carotid arteries were harvested. Specimens were stored in Histochoice for at least 24 hours before embedding. Assessment of VSMC proliferation was performed using mouse anti-BrdU monoclonal antibody. A fluorescence labeled goat anti-mouse secondary antibody was applied. The number of BrdU-positive nuclei per section were counted by two observers blinded to the treatment regimens. The remaining rats were sacrificed at 21 days for morphometric analysis. […] All data were expressed as mean±SD. […]

[4] = tested on: S100b/RAGE-induced production of TNF-α in THP-1 cells; test: Inhibition of S100b/RAGE-induced production of TNF-α in THP-1 cells; assay type: cell-based; conditions: 10 μg protein
Experimental: THP-1 myeloid cells may be cultured in RPMI-1640 media supplemented with 10% FBS and induced to secrete TNF-α via stimulation of RAGE with S100b. When such stimulation occurs in the presence of a RAGE fusion protein, induction of TNF-α by S100b binding to RAGE may be inhibited.
Previous work has shown that the myeloid THP-1 cells may secrete TNF-α in response to RAGE ligands. In this assay, THP-1 cells were cultured in RPMI-1640 media supplemented with 10% FBS using a protocol provided by ATCC. […] The amount of TNF-α secreted by the THP-1 cells was measured 24 hours after the addition of the proteins to the cell culture using a commercially available ELISA kit for TNF-α (R&D Systems, Minneapolis, Minn.).

Molecule | TNF secreted by THP-1 cells in wells precoated with 10 ug/well heat aggregated human IgG1, 24 hours [1] [ng/well] | reduction in infarct volume compared to sRAGE [2] | binding of fusion protein to immobilized amyloid-beta blocked by the RAGE ligand (amyloid-beta (A-beta)) | vascular smooth muscle cell proliferation (number of BrdU proliferating cells) [3] | blocking S100b induction of TNF-α compared with sRAGE [4]
human IgG1 (heat aggregated) (antibody) | > 40 | – | – | – | –
TTP-4000: four domain RAGE-IgG Fc fusion protein, SEQ ID NO: 32: human RAGE amino acids 1-251 linked to CH2 and CH3 domains of human IgG (protein, listed as Homo sapiens) MAAGTAVGAWALVLSLWGAVVGAQNITARIGEPLVLKCKGAPKKPPQRLEWKLNTGRTEAWKVLSPQGGGPWDSVARVLPNGSLFLPAVGIQDEGIFRCQAMNRNGKETKSNYRVRVYQIPGKPEIVDSASELTAGVPNKVGTCVSEGSYPAGTLSWHLDGKPLVPNEKGVSVKEQTRRHPETGLFTLQSELMVTPARGGDPRPTFSCSFSPGLPRHRALRTAPIQPRVWEPVPLEEVQLVVEPEGGAVAPPSVFLFPPKPKDTLMISRTPEVTCVVVDVSHEDPEVKFNWYVDGVEVHNAKTKPREEQYNSTYRVVSVLTVLHQDWLNGKEYKCKVSNKALPAPIEKTISKAKGQPREPQVYTLPPSRDELTKNQVSLTCLVKGFYPSDIAVEWESNGQPENNYKTTPPVLDSDGSFFLYSKLTVDKSRWQQGNVFSCSVMHEALHNHYTQKSLSLSPGK | – | significantly greater reduction | completely inhibited | significantly reduced | at least as effective
